Laboratory results: the RNAGym collection of RNA variant scans (doi:10.1073/pnas.2313332121)

B1: TPR t1 (parent)
chain: GACCAAUCUGCCCUCAGAGCUCGAGAACAUCUUCGGAUGCAGAGGAGGCAGGCUUCGGUGGCGCGAUAGCGCCAACGUCCUCAACCUCCAAUGCAUCCCACCACAUGAUGAUGCCUGAAGAGCCUUGGUUUUUUG

Variants of: B1
Test: polymerase ribozyme fitness, log enrichment relative to wild type (log ratio); higher = more active; in vitro selection for triplet polymerase activity
Procedure, shortened: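 Fitness is a logarithmic measure of how a genotype enriched relative to the wild type, with replicate averages weighted by inverse variance. The logarithm uses base 2, and enrichment came from Illumina sequencing of input and output libraries. Those libraries were PCR-built, transcribed mutants of each subunit of a heterodimeric triplet polymerase ribozyme, passed through one triplicate in vitro selection round that included frozen incubation at −7 °C, gel excision of extended constructs and streptavidin-bead capture. Genotypes were kept only if they had ≥10 input reads and ≥1 read per output.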

Variant	polymerase ribozyme fitness (log ratio)
C12A A41G G61U G117C G135C	-4.3
C12G C56G C70G	-3.6
C12U A18U G47C U130A	-4.44
C12A C22A G52A A84U A91C G120C	-6.58
C12A C20A G61C	-4.95
C12G G69U U81G A90U G127U	-4.07
C12A U21C A83C	-0.123
C11U C86U	-0.821
C12U A27C	-2.1
C11U G77U A91U	-1.63
C12A C49A G61A C82A	-0.648
C12A U130C U131C	-0.148
C12A U81A U133A	-1.05
C12G G35A A74U	-4.41
C12A C13A U59G G127A	-3.41
C12G G36C A43C G63C	-4.59
C12A A46U C82U	-1.99
C12A C64U U81A	-1.67
C11U G57A G63A C101G	-3.69
C11U G42C G44U C62U	-2.34
C11U U92A	-2.13
C12A A29U	-1.98
C12U A37U G63A C85U G93C G120A	-0.961
C11U U112G G127A	-1.34

Variant	polymerase ribozyme fitness (log ratio)
C12G U59G G60U A95U G110C	-5.19
C11U G117C A119U	-3.48
C12G G47C G52A C64U C123A	-3.61
C11U U21G G42A U96G	-4.94
C12G C98U A119G	0.523
C11U G42U G48C C88U G135C	-1.51
C11U C89A U112G	-1.71
C12A G61U C104U A108C A121U	-3.79
C12A C53G G69A C115A U116A	-7.23
C12G U112A U133G	1.61
C12G U30C A41U G48A	-5.05
C12A G44C C64U U125G	-2.52
C12G A29U C56U A118C C123G	-0.961
C12G A37U A105C U112C	-0.116
C12A C40A C70G	-4.57
C12A A18C A29G C72A	-2.28
C12A A74G C123A U131A	2.13
C11U C53A G63C A103C G113U	-6.41
C12A C28U	-1.82
C12G U14C U59G	-1.18
C11U G42C C53A	-2.22
C11U U32A C34U G69U C88A	-4.62
C12G U14A U38G C76U C85G	-3.19
C11U C89G	-1.89

Variant	polymerase ribozyme fitness (log ratio)
C11U U81A	-2.1
C12A A46U G47C	-1.36
C11U C104G	-6.74
C11U C104A	-2.66
C12A G25U A27C A37C U38A C70G C82U C115U	-6.08
C12A C20A C64A C88U U116C	-6.74
C12U A16U G63C A105C C124G	-2.25
C11U C22G C40U G69A	-5.5
C11U C115G	-1.7
C12U A26U G93U	-3.6
C12A C49U	-1.61
C12A G71U A91C	-1.77
C12A G57A	-1.19
C12A A24U U32A C99A U116C U130G	-7.85
C11U G17U G48A C124G	-1.88
C12G G61A C62G U87A G113U U125G	-7.34
C12G G51C	-3.21
C12A A24G A41U G71C C88U A90G C123G	-4.92
C11U G42A C85G	-3.59
C12G C73A A74G C89A A111G G127U	-5.44
C12G C15G G45A C49G C85U C124U	-2.82
C11U G48U	-0.841
C11U G48A	-1.69
C12G G47C U96A C104A	-4.59

Variant	polymerase ribozyme fitness (log ratio)
C11U C13U U32C	-1.05
C11U G63U	-1.27
C11U G63A	-1.15
C12A C56U A95G C115A C124A	0.771
C12A G39U A50U U133A	-1.46
C11U C72A	0.246
C12A U14G	-1.01
C12G C13A C56U C124A U132C	0.686
C12A C49A C70A C97A G120U U130G	-5.85
C12A C99U C123U U129G	-3.57
C12G G120C	1.23
C11U G17A U106A	-3.29
C12G C123G	1.55
C12G G47C A66U A90C G120C U129A	-6.06
C12A G63A C89G C114A	-6.47
C12G G93A C94U	-1.83
C12A G69U G107C G117C	-6.81
C12G G36U C56U A121U G122U	0.307
C12A C88G C89A U116C C124A G127A	-3.44
C12G G19C	-1.64
C11U C13U	-1.63
C12A A41U G48A G77U A83G	-2.82
C12A C13G G35A	-5.31
C12G G44A G48U A103G U112A C115A	-6.92

Variant	polymerase ribozyme fitness (log ratio)
C11U C73A	-0.524
C11U G128C	-2.9
C12A U32C G107A G120A	-3.32
C12A G48C U54C A83C C88A	-2.86
C12A G51A A91G A119G G120A	-2.39
C11U C13G C56U G93C C114U A119G	-3.78
C12G A46G G63C C115G	-4.6
C12A C88G	-1.56
C12G C72G C104U C123U C124A	2.06
C12G C13A C72G C124U	-0.0514
C12G C72U A100C	-1.28
C12G C80U	0.429
C12G G58U A90U A105U	-4.19
C12A G48U C53A C101U G113C G120A	-3.38
C11U C114U U132A	-3.3
C12G C20G C56U C79U C82U A91U G107C G117A	-3.77
C12G A24U C76A C82A G120C	-6.17
C12U A18G G63C C88G A90C C114A G122A	-5.09
C11U C22U C70U C99U U112A	-6.17
C12G A18U G39A G52A G60A C82U U106G G120A	-3.95
C12A G19C G58A C82G	-3.7
C12G G52A C88U G120U	1.84
C11U G48U U59C A84G C101A	-2.88
C12U A50G A74U U78C G93A	-1.93

Variant	polymerase ribozyme fitness (log ratio)
C11U C22G C40U	-3.22
C12A C62G C72G	-6.48
C12A A37U A68G C114G	-6.56
C11U C115A U125G	-2.51
C12G C40U A43U A83U A105C C124G	-5.47
C12G C124A	1.61
C11U G113A	-1.33
C11U U14A A84G	-4.24
C12A G47A C70U C88U U106A	-2.59
C12G A46G G128C U131A	-2.32
C12A G61A G93A	-0.608
C12A A83U	-0.825
C12G U87A	-0.0361
C12U A50G G71U U130C	0.0947
C11U C62U	-0.515
C12A G58A	-0.259
C12A C72U C98A	-6.65
C11U C49U G63A U109A G117C A119U	-7.12
C11U C53G C64U C101U U125A	-1.43
C12A C53A G61U U109G G117C U125A U126C	-7.8
C11U C104U U126G	-2.39
C12A C15A C72A G110U	-4.88
C11U G47C C56U U78A A100U C115U U131C	-4.41
C11U G61A U112C	1.14

Variant	polymerase ribozyme fitness (log ratio)
C12A G47C C56A C70U A83U C85U G120C	-4.03
C11U G44A G52A A118C C123G	-1.81
C12A A41G G63A	-2.29
C12G A83G C88G U125G	-2.21
C12G U55A U87A	0.0839
C12G G71C U96A A108G C123G	-4.58
C12A C64U	-0.93
C12A C62A G77A	-3.27
C11U U21C G63A C82U	-1.23
C11U G17A C82A	-4.52
C12A G57U C82G G113A G122A	-2.01
C12A A16U G44C C94U G117C U129G	-5.45
C12A C49A G63U A121U U132C G135A	1.42
C12G G45A U78C A84C U106G	-2.62
C12G G42U C49A G113C U132A	-2.5
C12A G35A C49A	-5.9
C12G G61U G107U	-4.66
C11U G45A	-0.828
C12A A26G G57A U78A C124G	-1.04
C12U A27G C40U C56U C79A U81A C124U	-2.87
C12G C62U A68C U116C A121C U129A	-6.48
C12U A27G C88A C123G U126A	-1.75
C12A G60A G110U G122A U132A	-3.16
